From publication PMC3744435

Biological target: capsid triplex (heterotrimer of two mCP and one mC-BP) (human cytomegalovirus (HCMV) strain AD169) (UniProt P16728)
Assay: cryo-EM structure

tegument protein pp150 (from UniProt P08318 1-1048) (natural protein)
stoichiometry N (copies per triplex): 3
